The target in assay [1] is T1, mature myostatin (recombinant, dimeric) (mouse polyprotein used for in-house …, UniProt O08689 268-376).
T1 sequence: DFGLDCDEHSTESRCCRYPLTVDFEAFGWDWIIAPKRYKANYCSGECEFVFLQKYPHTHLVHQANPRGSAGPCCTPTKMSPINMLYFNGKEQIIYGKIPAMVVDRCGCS
Description: cell-based or functional assay.

Assay [2] deals with T1, mature myostatin (recombinant, dimeric). Nature of the assay: cell-based or functional assay. The source holds these as a separate data set.
Assay [3] concerns the target T2, human myostatin pro-peptide dimer (human, UniProt O14793 25-266).
T2 sequence: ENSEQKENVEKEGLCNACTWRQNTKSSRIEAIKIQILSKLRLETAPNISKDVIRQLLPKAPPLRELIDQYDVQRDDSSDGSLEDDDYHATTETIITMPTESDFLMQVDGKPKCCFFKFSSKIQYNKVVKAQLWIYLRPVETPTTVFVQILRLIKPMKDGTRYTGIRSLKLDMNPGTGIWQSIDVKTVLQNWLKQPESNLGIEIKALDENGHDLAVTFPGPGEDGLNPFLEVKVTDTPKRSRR
Description: ELISA, plate-coated antigen. As to the method:
The myostatin antigens were coated onto wells of an EIA/RIA plate (Costar) at 100 ng/well at 4° C. overnight in PBS, prior to blocking (PBS, 3% BSA) for 30 minutes at room temperature. Plates were washed (PBS, 1% BSA and 0.1% Tween20), prior to the addition of a dilution series of 10B3 in wash buffer and incubation for 2 hours at room temperature. […] A final wash step preceded addition of TMB substrate and colorimetric change which was stopped with Sulphuric acid and plates read at 450 nm.
A general note: An ELISA detects its analyte on a solid surface through an enzyme-linked reagent.

In assay [4] the target is T1, mature myostatin (recombinant, dimeric). Description: ELISA, plate-coated myostatin (R&D Systems), mean EC50. As to the method:
10B3 and 10B3 chimera (10B3C) bound myostatin (R&D Systems, 788-G8-010/CF) in a sandwich ELISA. Plates were coated with myostatin at 10 ng/well and blocked with Block solution (PBS, 0.1% TWEEN and 1% BSA). Following washing (PBS, 0.1% TWEEN), antibody was incubated at 37° C. for 2 hours over a dilution series and plates washed again prior to incubation at 37° C. for 1 hour with anti-mouse HRP or anti-human HRP (Dako, P0161 & Sigma, A-8400, respectively). Plates were again washed and OPD substrate (Sigma, P9187) added until colourometric reaction occurred and the reaction stopped by the addition of H₂SO₄.

The target is the same in assay [5]. Nature of the assay: ActRIIb receptor binding assay (Example 2.5), mean IC50. The procedure: (§1) Recombinant soluble ActRIIb (R&D Systems 339-RBB) was coated in wells of an ELISA plate at 1 μg/ml in carbonate buffer overnight at 4° C. Plates were blocked (see Block solution above at 2.3) and washed following standard ELISA protocols. In parallel, 2 nM biotinylated myostatin (in-house, as described in 1.1, biotinylated material) was pre-incubated with an antibody dilution series consisting of 10B3, 10B3C, and a negative control (IgG1 isotype control) for 2 hours at 37° C. The biotinylated myostatin:antibody reactions were then added to the ActRIIb coated plate for 1 hour at 37° C. Standard wash procedures were followed prior to addition of 1:1000 diluted streptavidin-HRP conjugate (Dako P0397) and a further 37° C. incubation for 1 hour. Plates were again washed and assayed at absorbance 490 nm following OPD substrate (Sigma) and acid stop solution treatment Inhibition curves and IC50 values for the inhibition of myostatin activity are shown in FIG. 5 and Table 8 respectively.
H2L2 C91S_G55S F100G_Y, the developability enhanced molecule with the highest apparent potency in the A204 assay was Fc-disabled (by making the following substitutions, using EU numbering system: Leu 235 Ala; and Gly 237 Ala) as exemplified in SEQ ID NO: 99.

The target is the same in assay [6]. Nature of the assay: FORTEbio bio-layer interferometry, myostatin amine-coupled to sensor, 20 nM antibody, 1:1 fit. The procedure:
The affinity of 10B3 mouse parental and H2L2-C91S developability variant for recombinant myostatin was also assessed by FORTEbio™ (bio-layer inferometry) analysis. FORTEbio™ analyses were carried out by antigen capture. Myostatin (in-house, see above at 1.1) was coupled onto amine reactive biosensors by primary amine coupling in accordance with the manufacturer's instructions. Antibodies were then captured onto this surface at 20 nM concentrations. The data was analysed using the evaluation software inherent in the machine and the data analysed using 1:1 fit (see Table 16). Due to the limited number of myostatin molecules bound to the sensor surface and the low antibody concentration, avidity effects are reduced, enabling a more accurate measure of affinity compared to the Biacore analyses. […] However, due to the nature of the binding of the antibodies to myostatin, these values are mainly used for ranking purposes, and the affinity may not be representative of the affinity in vivo.
A general note: BLI is a label-free optical method that tracks binding on a fibre tip over time.

For assay [7] the target is unchanged. Nature of the assay: BIAcore T100, antibody captured on anti-mouse IgG (C1 chip), myostatin analyte, all curves 1:1 model. The procedure:
(§2) The affinity of 10B3 mouse parental and 10B3C for recombinant myostatin was assessed by BIAcore™ (surface plasmon resonance) analysis. Analysis was carried out by the use of a capture surface: anti-mouse IgG was coupled to a C1 chip by primary amine coupling for 10B3 mouse parental; and a protein A surface was created on a C1 chip by primary amine coupling for 10B3 chimera.
(§3) After capture, recombinant myostatin was passed over the surface at 64 nM, 16 nM, 4 nM, 1 nM, 0.25 nM and 0.0625 nM, with a buffer injection (i.e. 0 nM) used for double referencing. There was a regeneration step between each analyte injection, after which the new antibody capture event occurred before the next injection of myostatin. The data was analysed using both the 1:1 model and the Bivalent model inherent to the T100 machines analysis software (see Table 6). Both capture surfaces could be regenerated using 100 mM phosphoric acid, the work was carried out using HBS-EP as the running buffer and using 25° C. as the analysis temperature.
Background: Surface plasmon resonance follows binding to a sensor surface in real time, without labels.

The target is the same in assay [8]. Nature of the assay: BIAcore T100, antibody captured on anti-mouse IgG (C1 chip), myostatin analyte, all curves Bivalent model. The procedure:
as §2, §3

For assay [9] the target is unchanged. Description: ELISA: inhibition of 2 nM biotinylated myostatin binding to plate-coated ActRIIb, mean IC50 (= 0.88 nM by paragraph 327). As to the method: as §1

Data on 1 molecule can be found in patent US20110256132A1 (published 2011).

One may read the EC50 as the concentration giving half of the maximal effect. Broadly, the IC50 is the concentration needed to halve the response being measured. Broadly, the koff is a measure of how fast the partners let go of each other. A word on the kon: it is a measure of how fast the partners come together.

B1: mouse monoclonal antibody 10B3 (antibody, V domains shown)
VH: EVQLQQSGPELVKPGASVKISCKASGYSFTGYFMHWVKQSHGNILDWIGNIYPYNGVSNYNQRFKAKATLTVDKSSSTAYMELRSLTSEDSAVYYCARRYYYGTGPADWYFDVWGTGTTVTVSS
VL: DIKMTQSPSSMYASLRERVTITCKASQDINSYLSWFQQKPGKSPKTLIYRANRLVDGVPSRFSGSGSGQDYSLTISSLEYEDMGIYYCLQCDEFPLTFGAGTKLELK
notes: Mouse IgG2a/kappa from hybridoma; also called 10B3 mouse parental; 10B3 parental
In the case of B1, in assay [1], the “Mean IC50, myostatin responsive reporter gene assay (A204 cells, luciferase)” value amounted to 10 nM. Also, the “Mean IC50, A204 in vitro activity assay” value in assay [2] is 8.5 nM. Besides, the binding result in assay [3] is given as “no binding”. Further, in assay [4], the EC50 turned out to be 0.069 µg/mL. For the same molecule, the IC50 in [5] amounted to 0.161 nM; in [9], 0.132 µg/mL. Besides, the Kd in [6] came out at 0.31 nM; in [7], 1 nM; in [8] it was 5.9 nM. Further, the koff in assay [6] turned out to be 0.000131 s⁻¹. In addition, in [6], the kon was determined as 424000 M⁻¹ s⁻¹.
